Assay results published in patent US6399344B1, “Isolated proteins having retinol dehydrogenase activity, and which associate with retinol binding receptors” (Ludwig Institute for Cancer Research, priority 1994, dated 2002).

T1: p63 (Bos taurus, UniProt Q28175)
T1 construct: RPE-membrane proteins were then solubilized in phosphate-buffered saline; from tissue; host or cells: bovine retinal pigment epithelium (RPE) membrane fraction, CHAPS-solubilized, gel-filtered, 125I-labelled
T1 sequence (Q28175 2-533 limits assumed): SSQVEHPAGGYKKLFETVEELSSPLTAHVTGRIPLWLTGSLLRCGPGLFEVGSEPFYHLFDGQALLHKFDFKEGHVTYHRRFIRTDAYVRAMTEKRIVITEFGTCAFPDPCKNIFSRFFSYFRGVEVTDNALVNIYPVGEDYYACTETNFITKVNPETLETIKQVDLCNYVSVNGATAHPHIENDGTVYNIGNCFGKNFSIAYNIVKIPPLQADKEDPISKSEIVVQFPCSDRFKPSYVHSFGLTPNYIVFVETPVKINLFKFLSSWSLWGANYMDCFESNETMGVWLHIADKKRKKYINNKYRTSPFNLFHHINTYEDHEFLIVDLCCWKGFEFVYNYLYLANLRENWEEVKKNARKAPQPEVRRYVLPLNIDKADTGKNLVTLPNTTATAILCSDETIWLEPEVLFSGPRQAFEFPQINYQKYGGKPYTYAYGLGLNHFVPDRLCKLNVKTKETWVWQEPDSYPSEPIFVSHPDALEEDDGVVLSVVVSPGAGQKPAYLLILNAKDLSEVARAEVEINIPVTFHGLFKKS


Key:
[1] = Retinol dehydrogenase activity in membranes of baculovirus-infected Sf9 cells, reversed phase HPLC; type: biochemical, murine
Description: In order to generate a protein from a eukaryotic system, a 1.2 kilobase EcoRI fragment of the SEQ ID NO: 35 plasmid described supra was subcloned into a baculovirus expression vector, using known methods. Then, the vector was used to transfect Spodoptera frugiperda (“Sf9”) cells, again using known methods. Recombinant baculoviruses were then amplified by several rounds of amplification, and were then used in fresh Sf9 cells. A parallel set of experiments were also carried out, but using recombinant virus containing an unrelated gene, whose expression product had no retinol dehydrogenase activity.
Expressed protein was then assessed for enzyme activity. In brief, membranes equivalent to 25 ug of total membrane protein from infected cells were incubated in phosphate buffered saline (PBS), containing 100 uM of 9-cis retinol, or all-trans retinol. Final volumes of incubated materials were 200 ul. Either cofactor NAD+ or cofactor NADP was also added, to a final concentration of 200 uM. The mixture was incubated for 20 minutes at 37° C., after which alkaline ethanol was added. The mixture was then extracted with 2.0 ml of n-hexane. The organic phase was then removed and dried under argon. Dried phases were dissolved in ethanol, and aliquots were analyzed by reversed phase HPLC, using a C18 column, and a mobile phase of acetonitrile/water (85:15 v/v). Elution was at 1.0 ml/min, with effluent being monitored at 350 nm.

p63 = molecular target: T1, p63; experiment: Immunoprecipitation of radiolabelled RPE-membrane proteins with mAb A52 / rabbit antisera to p63, SDS-PAGE; type: binding; conditions: solubilized bovine RPE membranes, immunoprecipitation with mAb A52 or rabbit antisera to p63
Description: Bovine RPE-cells were isolated and membrane fractions were prepared as described in Bavik et al, J. Biol. Chem. 266:[…] (1991) incorporated by reference. RPE-membrane proteins were then solubilized in phosphate-buffered saline (PBS) (20 mM sodium phosphate, PH 7.2, containing 150 mM NaCl), containing 1% 3-[(3-cholamido-propyl) -dimethylammonio] -1-propane sulfonic acid (CHAPS) at 1 mg of total membrane protein/ml of buffer. Remaining material was removed by ultracentrifugation at 100,000×g for 1 hour. Next, 500 ul aliquots of the solubilized membranes were subjected to gel filtration on a Sepharose 6 column equilibrated in PBS containing 1% CHAPS. The column was operated at a flow rate of 0.2 ml/min and 500 ul fractions collected. Proteins eluted in fractions corresponding to globular proteins of Mr 150,000 to 400,000 were then radiolabelled with Na^125I using the well-known Chloramin T procedure. […]
Aliquots of the radiolabelled proteins were then diluted in PBS containing 1% CHAPS and 1% bovine serum albumin and subsequently subjected to immunoprecipitation using the mAb A52 to p63 (5 ug per incubation) or using two polyclonal rabbit antisera to p63 (3 ul of serum per incubation) See Bavik et al., J. Biol. Chem. 267:23035-23042 (1992). Non-specific immunoprecipitation was monitored in parallel incubations using an unrelated mAb and preimmune rabbit serum. […]

[2] = Retinol dehydrogenase activity of p32 in microsomal fractions of transfected COS-cells, HPLC; type: biochemical, bovine
Description: Specifically, the EcoRI—insert of pλ321 was cloned into the EcoR1-digested eucaryotic expression vector pSG5. See Green et al., Nucl. Acid Res. 16:39 (1988). COS-cells were maintained in Dulbecco's minimal essential medium supplemented with 10% fetal bovine serum, 2mM glutamine and antibiotics. The cells were seeded into 60 mm petri dishes (4×10^5 cells per dish) and transfected with 5 ug of plasmid per dish using DEAE dextran. Control cells were transfected with equal amounts of the parental vector alone. After treatment with 10% DMSO for 2 minutes, the cells were incubated for 72-96 hours, and then harvested by scraping the dishes with a rubber policeman, and the cells thereafter collected by low speed centrifugation. The collected cell pellets were next resuspended in hypotonic buffer (10 mM Tris-HCl, pH 7.5 containing 1mM phenyl-methylsufonyl fluoride), put on ice for 20 minutes, and then homogenized using a Dounce homogenator. Unbroken cells and debris were removed by centrifugation (3000×g)for 15 minutes. Microsomes were subsequently collected by ultra-centrifugation at 100,000×g for 1 hour; membrane pellets were stored at −80° C. until further analyzed.
Next, some of the enzymatic properties of p32 expressed in COS-cells were determined in a manner similar to that as described in the study of 11-cis-retinol dehydrogenase activity in microsomal fractions of RPE cells. See Saari et al., Anal. Biochem 213:[…] (1993).
In particular, enzymatic activity of p32 was assayed by incubating the microsomal fractions from the aforementioned transfected cells, and from control cells lacking p32, with varying combinations of the different stereo isomeric substrates, i.e., 11-cis-retinol or all-trans-retinol, in the presence of either cofactor NAD+ or NADP.
To assay for p32 activity in transfected cells, the final concentration of 11-cis-retinol and all-trans-retinol (obtained from Sigma Chemical Co.) in the incubations was reduced to 100 uM. Twenty ug of total membrane protein from COS-cells expressing p32 or from control cells were used in each incubation, and thereafter a 30 minute incubation at 37° C. in the presence or absence of NAD+ or NADP followed. Reaction mixtures were then extracted with n-hexane, and organic phases removed and dried under argon. The dried organic phases were then separately dissolved in ethanol and aliquots were analyzed on a normal phase silica HPLC column developed with n-hexane containing 4% dioxane at 1 ml per minute. See Saari et al. J. Biol. Chem. 257:13329-13333 (1982). Effluent was monitored at 330 nm. Under these conditions, 11-cis-retinaldehyde and 11-cis retinol eluted at 7 minutes and 22.5 minutes, respectively, and all-trans-retinaldehyde and all-trans retinol eluted at 8 minutes and 23 minutes, respectively.

[3] = experiments not elaborated upon

coprecipitation with p63 (binding to p63) (p63) | Molecule | oxidation of 9-cis retinol, efficiency relative to mock infected cells ([1]; 100 uM 9-cis retinol, 20 minutes at 37° C.) | 9-cis retinaldehyde formation ([1]; 100 uM 9-cis retinol, cofactor NADP 200 uM) | 11-cis RDH activity [1, 3] | 13-cis RDH activity [1, 3] | 11-cis-retinol dehydrogenase activity (formation of 11-cis-retinaldehyde) ([2]; 100 uM 11-cis-retinol, cofactor NAD+, 30 minute at 37° C.) | formation of all-trans retinaldehyde from all-trans retinol ([2]; 100 uM all-trans-retinol, 30 minute at 37° C.) | 11-cis-retinol dehydrogenase activity ([2]; cofactor NADP) | 9-cis retinol dehydrogenase activity ([2]; further experiments, no details)
– | protein encoded by SEQ ID NO: 35: murine liver membrane associated protein of about 34 kilodaltons with 9-cis, 11-cis and 13-cis retinol dehydrogenase activity (protein) MWLPLLLGALLWAVLWLLRDRQSLPASDAFIFITGCDSGFGRLLALQLDQKGFQVLAGCLTPSGAEDLQQMASSRLHTTLLDITDPQNVQQVAKWVKTRVGETGLFGLVNNAGVAGIIGPTPWLTQDDFQRVLSVNTLGPIGVTLALLPLLQQARGRVVNITSVLGRIAANGGGYCVSKFGLEAFSDSLRRDMAPFGVQVSIVEPGFFRTPVTNLESLESTLKACWARLPPAIQAHYGEAFLDTYLRVQRRIMNLICDPELTKVTSCLEHALTARHPRTRYSPGWDAKLLWLPASYLPARVVDAVLTWILPRPAQSVS | 8-10 times | Background levels | observed | 13-cis RDH activity | – | – | – | –
coprecipitated | p32: 32 kDa membrane associated bovine RPE protein that complexes with p63; stereo specific 11-cis-retinol dehydrogenase (SEQ ID NO: 10) (protein) MWLPLLLGVLLWAALWLLRDRQCLPASDAFIFITGCDSGFGRLLALRLDQRGFRVLASCLTPSGAEDLQRVASSRLHTTLLDVTDPQSIRQAVKWVETHVGEAGLFGLVNNAGVAGIIGPTPWQTREDFQRVLNVNTLGPIGVTLALLPLLLQARGRVINITSVLGRLAANGGGYCVSKFGLEAFSDSLRRDVAPFGVRVSIVEPGFFRTPVTNLETLEDTLQACWARLPPATQALYGEAFLTKYLRVQQRIMNMICDPDLAKVSRCLEHALTARHPRTRYSPGWDAKLLWLPASYLPARLVDAVLAWVLPKPAQTVY | – | – | – | – | active | no significant formation of all-trans retinaldehyde | not enzymatically-active | has 9-cis retinol dehydrogenase activity
